From paper PMC5383425, “Differential CLE peptide perception by plant receptors implicated from structural and functional analyses of TDIF-TDR interactions” (PLoS ONE, 2017) come the findings set out here.

Where a chain is given by its changes, count along the chain named. Square brackets hold non-standard residues; d marks the D form. Ends that are not written are not given here. Hyp = O=C(O)[C@@H]1C[C@@H](O)CN1

The target of experiment [1] is T1, extracellular domain of A. thaliana TDR (residues 30-642) (Arabidopsis thaliana, UniProt Q9FII5 30-642, N-glycosylated at N111, N356, N378, N471 and N525 (one GlcNAc visible on each in the structures)).
T1 chain: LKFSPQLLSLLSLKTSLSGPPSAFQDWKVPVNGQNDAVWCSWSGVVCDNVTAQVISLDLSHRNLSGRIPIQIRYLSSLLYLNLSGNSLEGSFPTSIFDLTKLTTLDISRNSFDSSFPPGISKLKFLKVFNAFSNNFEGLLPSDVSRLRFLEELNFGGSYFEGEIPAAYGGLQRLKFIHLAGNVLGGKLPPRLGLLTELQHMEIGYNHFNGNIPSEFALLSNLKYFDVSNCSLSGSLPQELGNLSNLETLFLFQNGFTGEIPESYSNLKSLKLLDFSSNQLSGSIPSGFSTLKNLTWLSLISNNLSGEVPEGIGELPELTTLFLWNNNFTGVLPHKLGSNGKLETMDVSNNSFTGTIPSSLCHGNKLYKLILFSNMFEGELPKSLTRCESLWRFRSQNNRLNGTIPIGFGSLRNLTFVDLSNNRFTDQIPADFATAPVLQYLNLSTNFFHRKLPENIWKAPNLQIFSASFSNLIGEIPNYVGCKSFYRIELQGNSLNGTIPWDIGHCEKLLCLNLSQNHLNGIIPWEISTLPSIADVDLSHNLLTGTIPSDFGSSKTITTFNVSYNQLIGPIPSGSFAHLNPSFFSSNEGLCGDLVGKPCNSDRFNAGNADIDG
Kind of experiment: ITC. Background: Isothermal titration calorimetry measures the heat released or taken up as one component is titrated into another.

For a further experiment, the target named is T2, ecdTDR S187A mutant (Arabidopsis thaliana, UniProt Q9FII5 30-642, S187A).
T2 construct: TDR/PXY of A. thaliana, extracellular domain, residues 30-642; source: High Five insect cells (baculovirus), secreted, purified as the wild type (Ni-NTA, size-exclusion chromatography)
T2 sequence (looked up): T1 chain with S158A
Description: ITC; 0.5–1 mM peptide titrated into 10–40 μM ecdTDR; 25°C; 10 mM sodium citrate, 100 mM NaCl, pH 5.5; fitted to one set of binding sites; MicroCal Auto-iTC200. Conditions: both partners purified.

In the next experiment the target is T3, ecdTDR R423A mutant (Arabidopsis thaliana, UniProt Q9FII5 30-642, R423A).
T3 construct: TDR/PXY of A. thaliana, extracellular domain, residues 30-642; source: High Five insect cells (baculovirus), secreted, purified as the wild type (Ni-NTA, size-exclusion chromatography)
T3 sequence (looked up): T1 chain with R394A
Described as above. Conditions: both partners purified.

A further experiment has as its target T4, ecdTDR G186A mutant (Arabidopsis thaliana, UniProt Q9FII5 30-642, G186A).
T4 construct: TDR/PXY of A. thaliana, extracellular domain, residues 30-642; source: High Five insect cells (baculovirus), secreted, purified as the wild type (Ni-NTA, size-exclusion chromatography)
T4 sequence (looked up): T1 chain with G157A
The experiment is described as above. The note with it: both partners purified.

B1: Tracheary Element Differentiation Inhibitory Factor (TDIF) peptide (peptide)
peptide: HEV[Hyp]SG[Hyp]NPISN
notes: TDIF, the 12-residue CLE peptide processed from CLE41 and CLE44 of A. thaliana; printed as HEV(Hyp)SG(Hyp)NPISN; numbers count on: the 12-residue peptide; CLE44 encodes the same peptide; also called wild type TDIF; wtTDIF; source: synthetic peptide (peptide 2.0)
Turning to B1, in experiment [1], binding was characterised by a dissociation constant (Kd) of 103 nM. Further, the binding result with ecdTDR S187A mutant, with ecdTDR R423A mutant and with ecdTDR G186A mutant was “binds” each time.
